Results from patent US20230357428A1.
Several values for one entry are separate records, joined by “and”; a condition that tells them apart may be missing. Identical values can stand only once.

Key:
[1] = molecular target: mix of HLA-A*02/SimPep tetramers (peptides SEQ ID NO: 51 to 59); assay: yeast display, SimPep tetramer mix, 10 nM each
[2] = molecular target: mix of HLA-A*02/SimPep tetramers (peptides SEQ ID NO: 51 to 59); assay: yeast display, flow cytometry; 10 nM PRAME-004 monomer (x), SimPep tetramer mix 10 nM each (y)

B1: stabilized scTCR R11P3D3SD (TCR)
chain: ILNVEQSPQSLHVQEGDSTNFTCSFPSSNFYNLHWYRKETAKSPEFLFYMTSNGDEKKKGRISATLNTKEGYSYLYITDSQPEDSATYLCALYNNNDMRFGAGTRLTVKPGGGGSGGGGSGGGGSGGGGSGGGGSGVIQSPRHLVTEMGQEVTLRCKPISGHNSLFWYRETPMQGLELLIYFNNNEPIDDSGMPEDRFSAKMPNASFSTLKIQPSEPRDSAVYFCASSPGSTDTQYFGPGTRLTVL
yeast cells stained positive [1]: 3.3% and 2.5% | % cells, upper left quadrant (monomer-, SimPep tetramers+) [2]: 3% | % cells, upper right quadrant (monomer+, SimPep tetramers+) [2]: 0.8%
